Biological target: SARS-CoV-2 刺突RBD蛋白 (Sinobiological) (SARS-CoV-2, UniProt P0DTC2 319-541)

B1: A70抗体 (antibody, V domains shown)
VH: QITLKESGPTLVKPTQTLTLTCTFSGFSLDTPGVAIGWIRQPPGRALEWLGLIYWDGDERYNPSLTSRVTLTKDTSKNQVVLTMTNVDSVDTGTYFCGHKTIPTIFGVWGQGAPVTVSS
VL: QSALTQPASVSGSPGQSITISCAATSGDFGVFNYVSWYQQHPGKAPKLIIFEVSSRPSGVSNRFSGSKSGNTASLTVSGLQAEDEAVYHCSSYSTSSVVFGGGTKLTVL
notes: also called 抗体A70
- EC50: 0.0511 µg/mL
- IC50: 0.515 µg/mL

B2: A46抗体 (antibody, V domains shown)
VH: EVQLLESGGGLIQPGGSLRLSCAVSEFIVSRNYMSWVRQAPGKGLEWVSVLYPGGSTFYADSVKGRFTISRDESTNTLFLQMNTLRVEDTAVYYCARDFGDFYFDFWGQGTLVTVSS
VL: EIVLTQSPGTLSLSPGQRAALSCRASQSVSTYLAWYQQKPGQAPRLLIHDASSRASGVPDRFSGTGSGTDFTLTITRLEPEDFAVYYCQQYGTSPRTFGQGTKLEIK
notes: also called 抗体A46
- EC50: 0.0355 µg/mL
- IC50: 0.703 µg/mL

Reference: patent CN115975019A (INST PATHOGEN BIOLOGY CAMS, dated 2023)
